From paper PMC3597663 (Nucleic Acids Research, 2013)

Target: Mycobacterium tuberculosis RsdA^1-94 (Mycobacterium tuberculosis, UniProt P9WJ71 1-94)
Assay: SPR

Mycobacterium tuberculosis RsdA^1-94, sequence (P9WJ71 1-94): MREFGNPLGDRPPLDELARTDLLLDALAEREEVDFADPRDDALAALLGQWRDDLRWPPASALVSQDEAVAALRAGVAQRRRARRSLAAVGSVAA

B1: -35 promoter binding domain of Mycobacterium tuberculosis σ^D (σ^D4), residues 141-212 (domain or fragment)
chain: MAIEADSVTRMNELLEILPAKQREILILRVVVGLSAEETAAAVGSTTGAVRVAQHRALQRLKDEIVAAGDYA
With B1 the Kd was 10.3 ± 3.5 µM.
